Data set [1] concerns the target TraI, relaxase/helicase of plasmid R1 (plasmid R1 (R1-16), in E. coli).
Data set [2] addresses T1, ParR (Escherichia coli plasmid R1, UniProt P11906 1-117).
T1 sequence: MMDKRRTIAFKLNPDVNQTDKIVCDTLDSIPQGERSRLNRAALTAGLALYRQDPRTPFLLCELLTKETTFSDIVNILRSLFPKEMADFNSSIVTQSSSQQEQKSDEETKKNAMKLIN
As to the kind of experiment: EMSA; ParR 20-320 nM; EMSA: 10 mM Tris-HCl pH 7.5, 50 mM NaCl, 0.005% NP-40, 1 mM DTT, 1 mM EDTA, 25 C, 20 min (DNA 20 nM in Methods, 4 nM in Fig 5 legend); fluorescence: 20 mM Tris-HCl pH 7.5, 100 mM NaCl, 1 mM EDTA, 25 C, 4 nM oriT17*, 0-100 nM TraI. Particulars: protein: recombinant; tags: none stated; chain copies: 2; label: 3'-TAMRA. A general note: A gel shift assay detects complexes by their altered migration in electrophoresis.

Data set [3] concerns the target T2, TraIN308 (relaxase domain) (Escherichia coli plasmid R1, UniProt Q6TDU5 1-308).
T2 sequence: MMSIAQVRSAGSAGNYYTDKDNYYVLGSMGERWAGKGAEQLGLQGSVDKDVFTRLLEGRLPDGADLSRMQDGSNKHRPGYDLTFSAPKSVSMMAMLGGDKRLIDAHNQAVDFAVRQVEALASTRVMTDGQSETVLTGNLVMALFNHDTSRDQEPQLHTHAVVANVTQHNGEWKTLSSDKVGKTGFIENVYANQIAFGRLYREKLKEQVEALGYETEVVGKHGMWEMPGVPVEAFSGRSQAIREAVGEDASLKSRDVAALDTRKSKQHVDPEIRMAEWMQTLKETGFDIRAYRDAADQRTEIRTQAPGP
As to the kind of experiment: fluorescence intensity titration; unit not printed with value; nM from titration range; EMSA: 10 mM Tris-HCl pH 7.5, 50 mM NaCl, 0.005% NP-40, 1 mM DTT, 1 mM EDTA, 25 C, 20 min (DNA 20 nM in Methods, 4 nM in Fig 5 legend); fluorescence: 20 mM Tris-HCl pH 7.5, 100 mM NaCl, 1 mM EDTA, 25 C, 4 nM oriT17*, 0-100 nM TraI. The settings on record: protein: recombinant; label: 3'-TAMRA.

The target of another data set is TraI (Escherichia coli plasmid R1, UniProt Q6TDU5 1-1756). Described as above. Particulars: protein: recombinant; label: 3'-TAMRA.
The target of data set [4] is T3, TraIΔN308 (helicase domain) (Escherichia coli plasmid R1, UniProt Q6TDU5 309-1756, del1-308).
T3 sequence: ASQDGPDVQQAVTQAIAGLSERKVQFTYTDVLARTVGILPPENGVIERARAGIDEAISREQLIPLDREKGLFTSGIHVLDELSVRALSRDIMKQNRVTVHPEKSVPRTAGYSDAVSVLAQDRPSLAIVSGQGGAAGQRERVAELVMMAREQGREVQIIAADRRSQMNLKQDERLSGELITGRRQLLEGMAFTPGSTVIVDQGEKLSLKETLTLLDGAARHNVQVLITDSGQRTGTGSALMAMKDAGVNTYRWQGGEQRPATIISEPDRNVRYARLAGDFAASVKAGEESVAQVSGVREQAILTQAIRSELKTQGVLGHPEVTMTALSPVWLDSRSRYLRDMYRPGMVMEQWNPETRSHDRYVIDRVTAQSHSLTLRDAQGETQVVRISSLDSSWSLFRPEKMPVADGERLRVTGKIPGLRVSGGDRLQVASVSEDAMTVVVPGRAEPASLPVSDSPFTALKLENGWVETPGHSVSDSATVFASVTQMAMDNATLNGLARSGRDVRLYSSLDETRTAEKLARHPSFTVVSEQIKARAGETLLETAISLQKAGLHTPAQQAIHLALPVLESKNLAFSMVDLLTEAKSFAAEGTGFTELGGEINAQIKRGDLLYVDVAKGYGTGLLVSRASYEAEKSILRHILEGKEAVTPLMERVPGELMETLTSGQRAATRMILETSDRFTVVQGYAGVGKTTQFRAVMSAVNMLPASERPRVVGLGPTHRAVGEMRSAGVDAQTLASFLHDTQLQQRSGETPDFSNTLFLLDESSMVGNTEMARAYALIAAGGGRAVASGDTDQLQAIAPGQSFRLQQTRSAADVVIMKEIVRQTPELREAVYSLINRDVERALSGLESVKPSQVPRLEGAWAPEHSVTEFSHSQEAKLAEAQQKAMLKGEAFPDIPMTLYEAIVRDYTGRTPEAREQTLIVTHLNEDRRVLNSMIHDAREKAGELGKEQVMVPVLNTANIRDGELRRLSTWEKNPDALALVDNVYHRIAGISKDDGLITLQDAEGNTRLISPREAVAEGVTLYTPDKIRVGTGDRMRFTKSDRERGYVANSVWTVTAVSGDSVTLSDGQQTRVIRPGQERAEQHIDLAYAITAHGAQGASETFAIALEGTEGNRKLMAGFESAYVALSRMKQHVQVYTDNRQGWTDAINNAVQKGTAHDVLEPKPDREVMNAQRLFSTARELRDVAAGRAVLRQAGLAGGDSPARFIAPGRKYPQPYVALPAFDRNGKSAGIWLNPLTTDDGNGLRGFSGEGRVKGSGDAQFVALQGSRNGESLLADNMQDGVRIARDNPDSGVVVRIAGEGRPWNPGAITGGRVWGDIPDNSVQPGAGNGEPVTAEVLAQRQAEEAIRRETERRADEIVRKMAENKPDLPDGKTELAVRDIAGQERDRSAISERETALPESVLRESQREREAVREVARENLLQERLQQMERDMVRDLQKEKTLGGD
The data set is described as above. The settings on record: protein: recombinant; label: 3'-TAMRA.

The target of data set [5] is T1, ParR. Put plainly: EMSA; shift from 5:1 protein/DNA molar ratio; EMSA: 10 mM Tris-HCl pH 7.5, 50 mM NaCl, 0.005% NP-40, 1 mM DTT, 1 mM EDTA, 25 C, 20 min (DNA 20 nM in Methods, 4 nM in Fig 5 legend); fluorescence: 20 mM Tris-HCl pH 7.5, 100 mM NaCl, 1 mM EDTA, 25 C, 4 nM oriT17*, 0-100 nM TraI. Particulars: protein: recombinant; tags: none stated; chain copies: 2; label: 3'-TAMRA on strand 1; blunt.

The target in data set [6] is TraD, type IV coupling protein (T4CP) of plasmid R1 (plasmid R1 (R1-16), in E. coli).

The record followed here is PMC4949242, “Conjugative DNA Transfer Is Enhanced by Plasmid R1 Partitioning Proteins”.

Numbering of substitutions follows the chain as printed. Names may count otherwise.

Consider “ParR with C-terminal FLAG epitope (pMS-CFLAGparR) (natural protein)”, for which the TraI (25 nM) relaxase activity on supercoiled oriT plasmid pDE100 (4 nM), percent open circular DNA, with increasing purified untagged ParR; maximum at 10 nM ParR in data set [1] stood at 4 fold.

Turning to CGAACGAGCAGTTGTTTCAGCG (ssDNA) [ssrnd], in the data set with ParR [2], the binding result is on record as “no binding”.

Turning to ACCAAAAGCACCACACCCCACGCAAAAACAAG (ssDNA) [ssoriT], the binding result with ParR [2] is reported as “no binding”.

B1: ParM with C-terminal FLAG epitope (pMS-CFLAGparM) (natural protein)
chain: MLVFIDDGSTNIKLQWQESDGTIKQHISPNSFKREWAVSFGDKKVFNYTLNGEQYSFDPISPDAVVTTNIAWQYSDVNVVAVHHALLTSGLPVSEVDIVCTLPLTEYYDRNNQPNTENIERKKANFRKKITLNGGDTFTIKDVKVMPESIPAGYEVLQELDELDSLLIIDLGGTTLDISQVMGKLSGISKIYGDSSLGVSLVTSAVKDALSLARTKGSSYLADDIIIHRKDNNYLKQRINDENKISIVTEAMNEALRKLEQRVLNTLNEFSGYTHVMVIGGGAELICDAVKKHTQIRDERFFKTNNSQYDLVNGMYLIGN
Turning to B1, in data set [1], the TraI (25 nM) relaxase activity on supercoiled oriT plasmid pDE100 (4 nM), percent open circular DNA, with increasing purified untagged ParM; maximum at 20-30 nM ParM amounted to 3 fold.

With AAACAAAACCCAAAAACAACCC (ssDNA) [ssparC], the binding result with ParR [2] was “no binding”.

TTTGCGTGGGGTGTGGT (ssDNA) [oriT17*]: the Kd amounted to 0.87 ± 0.19 nM in data set [3], 4.05 ± 0.32 nM with TraI and 82.6 ± 13.1 nM in data set [4].

B2: dsparC (iterons 1 and 2) (dsDNA)
DNA 1: AAACAAAACCCAAAAACAACCC
DNA 2: GGGTTGTTTTTGGGTTTTGTTT
With B2, in the data set with ParR [5], the binding result is “binds”.

B3: CreParMK123A (Cre fused to ParM residues 2-320 with K123A) (protein)
chain: LVFIDDGSTNIKLQWQESDGTIKQHISPNSFKREWAVSFGDKKVFNYTLNGEQYSFDPISPDAVVTTNIAWQYSDVNVVAVHHALLTSGLPVSEVDIVCTLPLTEYYDRNNQPNTENIERKAANFRKKITLNGGDTFTIKDVKVMPESIPAGYEVLQELDELDSLLIIDLGGTTLDISQVMGKLSGISKIYGDSSLGVSLVTSAVKDALSLARTKGSSYLADDIIIHRKDNNYLKQRINDENKISIVTEAMNEALRKLEQRVLNTLNEFSGYTHVMVIGGGAELICDAVKKHTQIRDERFFKTNNSQYDLVNGMYLIGN
In data set [6], B3 came in with a translocation of CreParMK123A to recipient cells by the R1-16 T4SS (CRAfT), percent of wild type Cre-ParM (% of wild type levels) of 24.5.

B4: CreParMS39A (Cre fused to ParM residues 2-320 with S39A) (protein)
chain: B3 chain with S38A, A122K
Take B4: in data set [6], the translocation of CreParMS39A to recipient cells by the R1-16 T4SS (CRAfT), percent of wild type Cre-ParM (% of wild type levels) came to 59.

A word on the Kd: it is the concentration at which binding is half-saturated.
